This is an account of results in patent publication US20110294730A1, “METHOD OF TREATING GLAUCOMA AND INTRAOCULAR HYPERTENSION” (priority 2010, published 2011).

Tested on in one data set: not listed separately
In words: Curcumin eye drops, retinal damage due to glaucoma. The format is in vivo. Particulars: curcumin 1 to 5 percent in normal saline. The text has this:
We have used curcumin diluted in the normal saline from 1 to 5 percent after extracting it from turmeric using solvents such as DMSO and alcohol as well other known solvents. […] The sclera can be stained yellow that can be mistaken for jaundice. All the above antioxidants can be used with insulin as described above and there is no systemic reaction.
Turning to `COc1cc(/C=C/C(=O)CC(=O)/C=C/c2ccc(O)c(OC)c2)ccc1O` [curcumin], the “improving the retinal damage” value is given as “very effective”.

Tested on in another data set: not given
Experiment: not given
Particulars: patients treated with latanoprost; cited from earlier work.
On to `CC(C)OC(=O)CCC/C=C\C[C@@H]1[C@@H](CC[C@@H](O)CCc2ccccc2)[C@H](O)C[C@@H]1O` [latanoprost], for which the “increased iris pigmentation, share of patients” value is listed as no more than 17%.

Tested on in the next data set: not given
Experiment: not given
Particulars: […] eye drops; cited from earlier work.
Take `CNC(=O)Oc1ccc2c(c1)[C@]1(C)CCN(C)[C@@H]1N2C` [physostigmine sulphate]: the miosis result is on record as “sustained miosis”.

In the next data set the test system is trabecular meshwork.
Experiment: not given
As to conditions: cited from earlier work.
On to 11-Ib: exogenous growth factor, for which the extracellular acidification entry is recorded as “significantly stimulated”.

Consider EGF: exogenous growth factor, for which the extracellular acidification result was “significantly stimulated”.

Consider FGF-1: exogenous growth factor, for which the extracellular acidification result is on record as “significantly stimulated”.

As for HGF: exogenous growth factor, the extracellular acidification entry is listed as “significantly stimulated”.

IGF-1: insulin like growth factor: the extracellular acidification result is listed as “significantly stimulated”.

As to TGF-a: exogenous growth factor, the extracellular acidification result is recorded as “significantly stimulated”.

Consider TNF-a, for which the extracellular acidification entry is “significantly stimulated”.

Tested on in another data set: not given
Experiment: not given
Particulars: in vivo; cited from earlier work.
Take “Insulin aspart [Insulin aspart (NovoLog)]”: the “Effective duration of action” value was 3 to 4 h, the Maximum duration is 4 to 6 h, the “Onset of Action” value is “¼-½” and the Peak action result is “½-1¼”.

Take “Insulin detemir [Insulin detemir (Levemir)]”: the “Effective duration of action” value is on record as 14 h, the Maximum duration was roughly 20 h, the “Onset of Action” value was 3 to 4 h and the Peak action was 6 to 8 h.

For the compound “Insulin glargine [Insulin glargine (Lantus)]”, the “Effective duration of action” value is 18 to 20 h, the Maximum duration was 20 to 24 h, the “Onset of Action” value is 3 to 4 h and the Peak action is 8 to 16 h.

Regarding “Insulin glulisine [Insulin glulisine (Apidra)]”, the “Effective duration of action” value was 3 to 4 h, the Maximum duration is 4 to 6 h, the “Onset of Action” value is on record as “¼-½” and the Peak action result is reported as “½-1¼”.

Turning to “Insulin lispro [Insulin lispro (Humalog)]”, the “Effective duration of action” value is 3 to 4 h, the Maximum duration was 4 to 6 h, the “Onset of Action” value is reported as “¼-½” and the Peak action result is “½-1¼”.

Regarding “NPH (isophane): intermediate-acting NPH (isophane) insulin”, the “Effective duration of action” value was 10 to 16 h, the Maximum duration was 14 to 18 h, the “Onset of Action” value is 2 to 4 h and the Peak action was 6 to 10 h.

In the case of “Regular (soluble): short-acting regular (soluble) insulin”, the “Effective duration of action” value is 3 to 6 h, the Maximum duration was 6 to 8 h and the Peak action was 2 to 3 h.
